According to paper PMC3792054, “A Remote Palm Domain Residue of RB69 DNA Polymerase Is Critical for Enzyme Activity and Influences the Conformation of the Active Site”:

How the values were obtained:
[1] = molecular target: T1, RB69 PolY567A/D714A Exo- (bacteriophage RB69, UniProt Q38087 1-903, D222A;D327A;Y567A;D714A); experiment: X-ray crystallography; dGpnpp, Ca2+, Na+; ternary complex I, 2.30 A; details: protein: recombinant; template 5' overhang 4 nt and 3' overhang 1 nt
T1 sequence: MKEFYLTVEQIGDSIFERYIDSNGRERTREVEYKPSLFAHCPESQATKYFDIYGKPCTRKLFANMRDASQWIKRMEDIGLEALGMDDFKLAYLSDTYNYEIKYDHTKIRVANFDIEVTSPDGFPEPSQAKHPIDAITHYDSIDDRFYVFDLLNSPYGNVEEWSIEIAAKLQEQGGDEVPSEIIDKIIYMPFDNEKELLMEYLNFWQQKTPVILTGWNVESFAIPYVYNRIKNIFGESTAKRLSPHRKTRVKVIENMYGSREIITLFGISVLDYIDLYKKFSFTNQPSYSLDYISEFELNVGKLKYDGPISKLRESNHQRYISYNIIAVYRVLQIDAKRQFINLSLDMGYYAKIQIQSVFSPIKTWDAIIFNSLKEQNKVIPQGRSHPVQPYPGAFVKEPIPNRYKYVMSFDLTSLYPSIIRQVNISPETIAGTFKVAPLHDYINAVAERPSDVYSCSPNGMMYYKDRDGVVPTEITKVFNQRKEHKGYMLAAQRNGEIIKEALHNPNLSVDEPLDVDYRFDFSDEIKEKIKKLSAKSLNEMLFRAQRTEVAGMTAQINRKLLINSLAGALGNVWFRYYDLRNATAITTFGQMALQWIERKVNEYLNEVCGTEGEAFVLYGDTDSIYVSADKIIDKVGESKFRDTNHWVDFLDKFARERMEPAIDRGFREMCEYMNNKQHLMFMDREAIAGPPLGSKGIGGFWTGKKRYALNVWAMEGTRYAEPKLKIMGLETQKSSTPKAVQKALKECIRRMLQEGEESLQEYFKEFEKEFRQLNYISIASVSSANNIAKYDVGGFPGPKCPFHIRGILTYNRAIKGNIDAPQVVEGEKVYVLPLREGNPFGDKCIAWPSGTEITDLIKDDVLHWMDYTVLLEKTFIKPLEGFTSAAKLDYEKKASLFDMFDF

[2] = molecular target: T2, RB69 PolD714A Exo- (bacteriophage RB69, UniProt Q38087 1-903, D222A;D327A;D714A); experiment: EMSA; almost same affinity as Pol+Exo-; value in Table 2/Figure 2E not in material; EMSA: 50 nM DNA, 7.5-500 nM Exo+ or 2.5-400 nM Exo- polymerase, native 6% PAGE; buffer, pH and temperature as in ref. 16; details: protein: recombinant; label: 5'-32P on primer (20-mer); 5' overhang 6 nt on template; other end blunt
T2 sequence: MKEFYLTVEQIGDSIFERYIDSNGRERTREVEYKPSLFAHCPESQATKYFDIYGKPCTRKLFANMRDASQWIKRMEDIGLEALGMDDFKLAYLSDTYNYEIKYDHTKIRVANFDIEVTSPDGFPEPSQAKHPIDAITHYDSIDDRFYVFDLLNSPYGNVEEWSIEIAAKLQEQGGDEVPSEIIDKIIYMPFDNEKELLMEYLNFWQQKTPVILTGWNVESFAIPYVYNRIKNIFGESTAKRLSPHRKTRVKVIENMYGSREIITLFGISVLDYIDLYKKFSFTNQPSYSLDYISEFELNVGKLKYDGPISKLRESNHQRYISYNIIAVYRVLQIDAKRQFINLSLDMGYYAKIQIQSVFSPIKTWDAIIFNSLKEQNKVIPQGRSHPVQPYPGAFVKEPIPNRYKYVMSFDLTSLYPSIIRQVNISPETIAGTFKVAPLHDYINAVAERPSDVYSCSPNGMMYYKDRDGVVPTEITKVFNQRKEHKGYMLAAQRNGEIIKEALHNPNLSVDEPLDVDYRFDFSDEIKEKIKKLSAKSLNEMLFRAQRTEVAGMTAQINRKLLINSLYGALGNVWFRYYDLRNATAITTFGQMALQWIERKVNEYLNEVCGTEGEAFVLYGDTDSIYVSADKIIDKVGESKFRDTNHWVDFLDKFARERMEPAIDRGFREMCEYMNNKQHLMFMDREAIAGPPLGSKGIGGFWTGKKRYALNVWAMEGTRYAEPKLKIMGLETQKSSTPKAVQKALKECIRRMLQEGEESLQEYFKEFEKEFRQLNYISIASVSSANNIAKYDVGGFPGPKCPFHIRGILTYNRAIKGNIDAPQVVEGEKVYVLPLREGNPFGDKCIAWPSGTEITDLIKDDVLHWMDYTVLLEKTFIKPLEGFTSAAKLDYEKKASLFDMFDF

[3] = molecular target: T3, RB69 DNA polymerase Pol+Exo+ (wild type gp43) (bacteriophage RB69, UniProt Q38087 1-903); experiment: EMSA; apparent Kd; EMSA: 50 nM DNA, 7.5-500 nM Exo+ or 2.5-400 nM Exo- polymerase, native 6% PAGE; buffer, pH and temperature as in ref. 16; details: protein: recombinant; label: 5'-32P on primer (20-mer); 5' overhang 6 nt on template; other end blunt
T3 sequence: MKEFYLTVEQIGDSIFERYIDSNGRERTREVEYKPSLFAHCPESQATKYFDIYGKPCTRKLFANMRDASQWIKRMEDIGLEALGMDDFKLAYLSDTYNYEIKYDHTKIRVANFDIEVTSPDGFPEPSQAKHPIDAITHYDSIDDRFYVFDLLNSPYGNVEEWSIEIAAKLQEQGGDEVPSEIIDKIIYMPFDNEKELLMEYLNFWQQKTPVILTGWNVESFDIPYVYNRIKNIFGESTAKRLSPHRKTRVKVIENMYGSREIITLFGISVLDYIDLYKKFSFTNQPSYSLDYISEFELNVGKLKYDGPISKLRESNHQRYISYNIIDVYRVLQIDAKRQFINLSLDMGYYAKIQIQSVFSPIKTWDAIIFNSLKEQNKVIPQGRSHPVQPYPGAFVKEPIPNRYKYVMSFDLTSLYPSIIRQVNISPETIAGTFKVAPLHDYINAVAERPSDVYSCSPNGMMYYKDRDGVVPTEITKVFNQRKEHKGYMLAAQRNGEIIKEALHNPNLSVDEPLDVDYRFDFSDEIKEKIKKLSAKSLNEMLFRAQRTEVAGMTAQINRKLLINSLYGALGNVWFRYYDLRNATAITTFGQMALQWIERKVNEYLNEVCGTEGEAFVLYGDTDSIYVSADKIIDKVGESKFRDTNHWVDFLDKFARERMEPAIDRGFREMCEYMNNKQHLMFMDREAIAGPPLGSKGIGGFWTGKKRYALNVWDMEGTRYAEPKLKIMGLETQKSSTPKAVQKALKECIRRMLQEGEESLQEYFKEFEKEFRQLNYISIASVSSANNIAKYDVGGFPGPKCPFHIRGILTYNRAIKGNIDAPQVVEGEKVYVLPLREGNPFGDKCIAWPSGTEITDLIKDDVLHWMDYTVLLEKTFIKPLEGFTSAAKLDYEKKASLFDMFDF

[4] = molecular target: T4, RB69 PolD714A Exo+ (bacteriophage RB69, UniProt Q38087 1-903, D714A); experiment: as above; details: protein: recombinant; label: 5'-32P on primer (20-mer); 5' overhang 6 nt on template; other end blunt
T4 sequence: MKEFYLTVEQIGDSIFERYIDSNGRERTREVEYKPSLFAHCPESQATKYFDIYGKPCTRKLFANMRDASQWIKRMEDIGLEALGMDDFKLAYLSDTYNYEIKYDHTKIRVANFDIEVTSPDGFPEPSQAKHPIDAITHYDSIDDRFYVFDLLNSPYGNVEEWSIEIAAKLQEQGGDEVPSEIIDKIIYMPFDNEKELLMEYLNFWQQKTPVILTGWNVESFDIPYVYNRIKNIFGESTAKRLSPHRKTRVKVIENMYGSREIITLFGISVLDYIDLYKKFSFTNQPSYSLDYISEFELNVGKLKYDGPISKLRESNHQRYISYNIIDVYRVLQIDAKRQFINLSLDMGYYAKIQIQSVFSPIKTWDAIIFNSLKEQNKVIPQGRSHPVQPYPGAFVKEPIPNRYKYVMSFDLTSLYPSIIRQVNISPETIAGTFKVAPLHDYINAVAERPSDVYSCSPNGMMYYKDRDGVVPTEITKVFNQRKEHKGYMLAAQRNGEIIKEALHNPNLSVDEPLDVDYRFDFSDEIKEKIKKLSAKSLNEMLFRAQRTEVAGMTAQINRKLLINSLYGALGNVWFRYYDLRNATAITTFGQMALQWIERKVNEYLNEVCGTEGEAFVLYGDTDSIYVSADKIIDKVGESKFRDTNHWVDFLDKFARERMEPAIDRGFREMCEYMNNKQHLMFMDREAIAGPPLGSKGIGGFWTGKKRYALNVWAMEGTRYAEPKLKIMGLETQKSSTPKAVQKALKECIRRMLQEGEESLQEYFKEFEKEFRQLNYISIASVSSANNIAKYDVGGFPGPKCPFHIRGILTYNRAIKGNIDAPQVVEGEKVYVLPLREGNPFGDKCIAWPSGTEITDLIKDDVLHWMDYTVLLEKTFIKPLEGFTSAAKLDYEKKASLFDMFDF

[5] = molecular target: T5, RB69 Pol+Exo- (bacteriophage RB69, UniProt Q38087 1-903, D222A;D327A); experiment: EMSA; binds tighter than Pol+Exo+; value in Table 2/Figure 2E not in material; EMSA: 50 nM DNA, 7.5-500 nM Exo+ or 2.5-400 nM Exo- polymerase, native 6% PAGE; buffer, pH and temperature as in ref. 16; details: protein: recombinant; label: 5'-32P on primer (20-mer); 5' overhang 6 nt on template; other end blunt
T5 sequence: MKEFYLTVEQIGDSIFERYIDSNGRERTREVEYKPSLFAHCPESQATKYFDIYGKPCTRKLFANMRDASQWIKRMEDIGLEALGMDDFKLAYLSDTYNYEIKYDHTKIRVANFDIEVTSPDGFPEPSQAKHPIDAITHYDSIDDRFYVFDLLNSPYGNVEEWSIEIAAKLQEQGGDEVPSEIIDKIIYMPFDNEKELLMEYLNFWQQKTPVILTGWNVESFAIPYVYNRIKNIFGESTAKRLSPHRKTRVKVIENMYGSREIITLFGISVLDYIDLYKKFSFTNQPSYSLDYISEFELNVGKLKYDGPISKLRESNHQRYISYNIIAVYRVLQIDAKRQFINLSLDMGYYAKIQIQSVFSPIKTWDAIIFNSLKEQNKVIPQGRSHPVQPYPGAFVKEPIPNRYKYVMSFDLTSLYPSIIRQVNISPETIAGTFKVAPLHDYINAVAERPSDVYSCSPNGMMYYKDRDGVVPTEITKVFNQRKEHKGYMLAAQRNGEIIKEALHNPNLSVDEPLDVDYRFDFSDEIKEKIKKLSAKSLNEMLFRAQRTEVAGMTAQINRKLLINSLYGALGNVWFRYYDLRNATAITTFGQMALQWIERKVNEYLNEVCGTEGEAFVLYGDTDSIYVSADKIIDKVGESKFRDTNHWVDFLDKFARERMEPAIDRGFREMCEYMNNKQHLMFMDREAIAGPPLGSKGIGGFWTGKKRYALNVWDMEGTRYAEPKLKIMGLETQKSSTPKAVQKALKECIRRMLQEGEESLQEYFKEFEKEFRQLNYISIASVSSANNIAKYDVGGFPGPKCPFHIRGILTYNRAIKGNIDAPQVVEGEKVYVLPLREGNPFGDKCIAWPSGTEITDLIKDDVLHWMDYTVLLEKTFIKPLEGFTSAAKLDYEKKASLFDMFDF

B1: 13/18-mer primer-template (crystal) (dsDNA)
DNA 1: GCGGACTGCTTAC
DNA 2: TCACGTAAGCAGTCCGCG
- binding result [1]: binds

B2: 20*/26-mer primer-template (dsDNA)
DNA 1: AGCTACGCGGCTGTCATAAG
DNA 2: TTGCGTCTTATGACAGCCGCGTAGCT
- binding result [2]: binds
- Kd [3]: 176 nM
- Kd [4]: 141 nM
- binding result [5]: binds
